The values below come from patent US20240059789A1 (Janssen / Centocor, published 2024).

Experiment [1] addresses T1, Human PSMA on prostate cancer cell lines (C4-2B, 22RV1) (human, UniProt Q04609 1-750). The experiment can be described thus: cell-based or functional assay.
Experiment [2] has as its target T1, Human PSMA on prostate cancer cell …. The experiment can be described thus: cell-based or functional assay. The source holds these as a separate data set.

T1 sequence (Q04609 whole entry): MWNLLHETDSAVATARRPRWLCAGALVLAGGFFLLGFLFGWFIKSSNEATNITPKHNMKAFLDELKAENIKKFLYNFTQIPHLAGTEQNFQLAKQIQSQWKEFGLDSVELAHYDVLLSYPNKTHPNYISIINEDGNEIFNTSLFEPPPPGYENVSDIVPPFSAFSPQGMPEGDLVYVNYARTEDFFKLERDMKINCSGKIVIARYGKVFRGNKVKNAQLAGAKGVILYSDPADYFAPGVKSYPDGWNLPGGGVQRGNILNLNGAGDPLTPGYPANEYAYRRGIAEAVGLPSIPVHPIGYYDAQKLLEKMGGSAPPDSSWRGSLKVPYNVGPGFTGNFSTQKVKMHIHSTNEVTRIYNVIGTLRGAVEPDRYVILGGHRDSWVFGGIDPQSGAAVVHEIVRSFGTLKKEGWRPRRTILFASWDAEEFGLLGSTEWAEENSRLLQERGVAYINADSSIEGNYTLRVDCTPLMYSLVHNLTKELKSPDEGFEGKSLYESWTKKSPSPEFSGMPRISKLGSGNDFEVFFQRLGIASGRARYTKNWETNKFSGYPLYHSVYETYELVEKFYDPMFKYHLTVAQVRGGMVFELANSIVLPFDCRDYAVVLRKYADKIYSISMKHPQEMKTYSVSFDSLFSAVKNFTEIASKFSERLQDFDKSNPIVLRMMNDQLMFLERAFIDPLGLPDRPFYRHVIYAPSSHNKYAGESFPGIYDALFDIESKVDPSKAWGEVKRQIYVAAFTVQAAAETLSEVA

B1: PS3B1353 (bispecific antibody, human IgG1, lambda, L234A L235A)
heavy 1: QVQLQQSGPRLVRPSQTLSLTCAISGDSVFNNNAAWSWIRQSPSRGLEWLGRTYYRSKWLYDYAVSVKSRITVNPDTSRNQFTLQLNSVTPEDTALYYCARGYSSSFDYWGQGTLVTVSSASTKGPSVFPLAPSSKSTSGGTAALGCLVKDYFPEPVTVSWNSGALTSGVHTFPAVLQSSGLYSLSSVVTVPSSSLGTQTYICNVNHKPSNTKVDKKVEPKSCDKTHTCPPCPAPEAAGGPSVFLFPPKPKDTLMISRTPEVTCVVVSVSHEDPEVKFNWYVDGVEVHNAKTKPREEQYNSTYRVVSVLTVLHQDWLNGKEYKCKVSNKALPAPIEKTISKAKGQPREPQVYTLPPSREEMTKNQVSLTCLVKGFYPSDIAVEWESNGQPENNYKTTPPVLDSDGSFLLYSKLTVDKSRWQQGNVFSCSVMHEALHNHYTQKSLSLSPGK
light 1: QSALTQPASVSGSPGQSITISCTGTSSNIGTYKFVSWYQQHPDKAPKVLLYEVSKRPSGVSSRFSGSKSGNTASLTISGLQAEDQADYHCVSYAGSGTLLFGGGTKLTVLGQPKAAPSVTLFPPSSEELQANKATLVCLISDFYPGAVTVAWKADSSPVKAGVETTTPSKQSNNKYAASSYLSLTPEQWKSHRSYSCQVTHEGSTVEKTVAPTECS
heavy 2: EVQLVESGGGLVQPGGSLRLSCAASGFTFSSYAMSWVRQAPGKGLEWVSAISGGIGSTYYADSVKGRFTISRDNSKNTLWLQMNSLRAEDTAVYYCAKDGVGATPYYFDYWGQGTLVTVSSASTKGPSVFPLAPSSKSTSGGTAALGCLVKDYFPEPVTVSWNSGALTSGVHTFPAVLQSSGLYSLSSVVTVPSSSLGTQTYICNVNHKPSNTKVDKKVEPKSCDKTHTCPPCPAPEAAGGPSVFLFPPKPKDTLMISRTPEVTCVVVSVSHEDPEVKFNWYVDGVEVHNAKTKPREEQYNSTYRVVSVLTVLHQDWLNGKEYKCKVSNKALPAPIEKTISKAKGQPREPQVYTLPPSREEMTKNQVSLTCLVKGFYPSDIAVEWESNGQPENNYKTTPPVLDSDGSFFLYSRLTVDKSRWQQGNVFSCSVMHEALHNHYTQKSLSLSPGK
light 2: QSVLTQPPSVSAAPGQKVTISCSGSSSNIGINYVSWYQQLPGTAPKLLIYDNNKRPSGIPDRFSGSKSGTSATLGITGLQTGDEADYYCGTWDSSLSAVVFGGGTKLTVLGQPKAAPSVTLFPPSSEELQANKATLVCLISDFYPGAVTVAWKADSSPVKAGVETTTPSKQSNNKYAASSYLSLTPEQWKSHRSYSCQVTHEGSTVEKTVAPTECS
B1: in experiment [1], the “% cytolysis at 120 hours (C4-2B, xCelligence, donor #1) at 80 pM” value worked out at 100%; the “% cytolysis at 120 hours (C4-2B, xCelligence, donor #1) at 0.4 nM” value amounted to 100%; the “% cytolysis at 120 hours (C4-2B, xCelligence, donor #1) at 2 nM” value is 100%; the “% cytolysis at 120 hours (C4-2B, xCelligence, donor #1) at 10 nM” value was 100%. Further, in experiment [1], the “% cytolysis at 120 hours (C4-2B, xCelligence, donor #1) at 50 nM” value came to 100%; the “% cytolysis at 120 hours (C4-2B, xCelligence, donor #2) at 80 pM” value came to 100%; the “% cytolysis at 120 hours (C4-2B, xCelligence, donor #2) at 0.4 nM” value was 100%; the “% cytolysis at 120 hours (C4-2B, xCelligence, donor #2) at 2 nM” value is 100%. In addition, in experiment [1], the “% cytolysis at 120 hours (C4-2B, xCelligence, donor #2) at 10 nM” value is 100%; the “% cytolysis at 120 hours (C4-2B, xCelligence, donor #2) at 50 nM” value was 100%; the “% cytolysis at 120 hours (C4-2B, xCelligence, donor #3) at 80 pM” value worked out at 100%; the “% cytolysis at 120 hours (C4-2B, xCelligence, donor #3) at 0.4 nM” value amounted to 100%. Besides, in experiment [1], the “% cytolysis at 120 hours (C4-2B, xCelligence, donor #3) at 2 nM” value was found to be 100%; the “% cytolysis at 120 hours (C4-2B, xCelligence, donor #3) at 10 nM” value came out at 100%; the “% cytolysis at 120 hours (C4-2B, xCelligence, donor #3) at 50 nM” value came out at 100%. In experiment [2], the “Cytotoxicity (C4-2B cells, 3:1 E:T ratio, 5 Day) at 0.3 nM” value was found to be 98%; the “Cytotoxicity (C4-2B cells, 3:1 E:T ratio, 5 Day) at 1.1 nM” value turned out to be 98%; the “Cytotoxicity (C4-2B cells, 3:1 E:T ratio, 5 Day) at 3.3 nM” value was found to be 97%; the “Cytotoxicity (C4-2B cells, 3:1 E:T ratio, 5 Day) at 10 nM” value came to 95%. In experiment [2], the “Cytotoxicity (C4-2B cells, 3:1 E:T ratio, 5 Day) at 30 nM” value came to 92%.

B2: PS3B1356 (bispecific antibody, human IgG1, lambda, L234A L235A)
heavy 1: QVQLQQSGPGLVKPSQTLSLTCAISGDSVFNNNAAWSWIRQSPSRGLEWLGRTYYRSKWLYDYAVSVKSRITINPDTSKNQFSLQLNSVTPEDTAVYYCARGYSSSFDYWGQGTLVTVSSASTKGPSVFPLAPSSKSTSGGTAALGCLVKDYFPEPVTVSWNSGALTSGVHTFPAVLQSSGLYSLSSVVTVPSSSLGTQTYICNVNHKPSNTKVDKKVEPKSCDKTHTCPPCPAPEAAGGPSVFLFPPKPKDTLMISRTPEVTCVVVSVSHEDPEVKFNWYVDGVEVHNAKTKPREEQYNSTYRVVSVLTVLHQDWLNGKEYKCKVSNKALPAPIEKTISKAKGQPREPQVYTLPPSREEMTKNQVSLTCLVKGFYPSDIAVEWESNGQPENNYKTTPPVLDSDGSFLLYSKLTVDKSRWQQGNVFSCSVMHEALHNHYTQKSLSLSPGK
light 1: QSALTQPASVSGSPGQSITISCTGTSSNIGTYKFVSWYQQHPGKAPKVMIYEVSKRPSGVSNRFSGSKSGNTASLTISGLQAEDEADYYCVSYAGSGTLLFGGGTKLTVLGQPKAAPSVTLFPPSSEELQANKATLVCLISDFYPGAVTVAWKADSSPVKAGVETTTPSKQSNNKYAASSYLSLTPEQWKSHRSYSCQVTHEGSTVEKTVAPTECS
heavy 2: EVQLVESGGGLVQPGGSLRLSCAASGFTFSSYAMSWVRQAPGKGLEWVSAISGGIGSTYYADSVKGRFTISRDNSKNTLWLQMNSLRAEDTAVYYCAKDGVGATPYYFDYWGQGTLVTVSSASTKGPSVFPLAPSSKSTSGGTAALGCLVKDYFPEPVTVSWNSGALTSGVHTFPAVLQSSGLYSLSSVVTVPSSSLGTQTYICNVNHKPSNTKVDKKVEPKSCDKTHTCPPCPAPEAAGGPSVFLFPPKPKDTLMISRTPEVTCVVVSVSHEDPEVKFNWYVDGVEVHNAKTKPREEQYNSTYRVVSVLTVLHQDWLNGKEYKCKVSNKALPAPIEKTISKAKGQPREPQVYTLPPSREEMTKNQVSLTCLVKGFYPSDIAVEWESNGQPENNYKTTPPVLDSDGSFFLYSRLTVDKSRWQQGNVFSCSVMHEALHNHYTQKSLSLSPGK
light 2: QSVLTQPPSVSAAPGQKVTISCSGSSSNIGNNYVSWYQQLPGTAPKLLIYDNNKRPSGIPDRFSGSKSGTSATLGITGLQTGDEADYYCGTWDSSLSAYVFGTGTKVTVLGQPKAAPSVTLFPPSSEELQANKATLVCLISDFYPGAVTVAWKADSSPVKAGVETTTPSKQSNNKYAASSYLSLTPEQWKSHRSYSCQVTHEGSTVEKTVAPTECS
B2: in experiment [1], the “% cytolysis at 120 hours (C4-2B, xCelligence, donor #1) at 80 pM” value was 0%; the “% cytolysis at 120 hours (C4-2B, xCelligence, donor #1) at 0.4 nM” value is 100%; the “% cytolysis at 120 hours (C4-2B, xCelligence, donor #1) at 2 nM” value came to 100%; the “% cytolysis at 120 hours (C4-2B, xCelligence, donor #1) at 10 nM” value amounted to 100%. Besides, in experiment [1], the “% cytolysis at 120 hours (C4-2B, xCelligence, donor #1) at 50 nM” value stood at 100%; the “% cytolysis at 120 hours (C4-2B, xCelligence, donor #2) at 80 pM” value came to 0%; the “% cytolysis at 120 hours (C4-2B, xCelligence, donor #2) at 0.4 nM” value is 24%; the “% cytolysis at 120 hours (C4-2B, xCelligence, donor #2) at 2 nM” value is 100%. In experiment [1], the “% cytolysis at 120 hours (C4-2B, xCelligence, donor #2) at 10 nM” value turned out to be 100%; the “% cytolysis at 120 hours (C4-2B, xCelligence, donor #2) at 50 nM” value was found to be 100%; the “% cytolysis at 120 hours (C4-2B, xCelligence, donor #3) at 80 pM” value came out at 0%; the “% cytolysis at 120 hours (C4-2B, xCelligence, donor #3) at 0.4 nM” value stood at 100%. Moreover, in experiment [1], the “% cytolysis at 120 hours (C4-2B, xCelligence, donor #3) at 2 nM” value came to 100%; the “% cytolysis at 120 hours (C4-2B, xCelligence, donor #3) at 10 nM” value came out at 100%; the “% cytolysis at 120 hours (C4-2B, xCelligence, donor #3) at 50 nM” value stood at 100%. Also, in experiment [2], the “Cytotoxicity (C4-2B cells, 3:1 E:T ratio, 5 Day) at 1.1 nM” value is 55%; the “Cytotoxicity (C4-2B cells, 3:1 E:T ratio, 5 Day) at 3.3 nM” value came out at 80%; the “Cytotoxicity (C4-2B cells, 3:1 E:T ratio, 5 Day) at 10 nM” value turned out to be 83%; the “Cytotoxicity (C4-2B cells, 3:1 E:T ratio, 5 Day) at 30 nM” value worked out at 88%.
